Measured values published in US20240294650A1 (Alector, published 2024).

Tests used:
[1] = biological target: T1, recombinant murine MerTK extracellular domain (mouse, UniProt Q60805 19-497); assay: SPR Carterra LSA
T1 construct: also called Mouse MerTK; murine MerTK ECD; not shown: polyHis or TEVS/Thrombin/murine IgG2a-Fc tag
T1 sequence: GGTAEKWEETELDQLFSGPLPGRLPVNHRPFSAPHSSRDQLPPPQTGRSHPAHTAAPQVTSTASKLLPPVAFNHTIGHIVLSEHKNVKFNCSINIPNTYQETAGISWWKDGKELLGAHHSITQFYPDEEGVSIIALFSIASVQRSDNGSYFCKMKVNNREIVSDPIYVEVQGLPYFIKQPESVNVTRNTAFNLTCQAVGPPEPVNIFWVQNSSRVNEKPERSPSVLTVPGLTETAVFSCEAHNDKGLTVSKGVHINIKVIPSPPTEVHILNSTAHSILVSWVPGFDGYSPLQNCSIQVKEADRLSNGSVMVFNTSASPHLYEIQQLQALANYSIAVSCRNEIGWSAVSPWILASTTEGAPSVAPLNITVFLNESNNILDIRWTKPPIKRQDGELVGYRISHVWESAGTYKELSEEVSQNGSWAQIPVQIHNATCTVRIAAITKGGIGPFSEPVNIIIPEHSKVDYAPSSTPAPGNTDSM
Description: Binding kinetics of anti-MerTK IgG1 antibodies of the present disclosure to human, cyno, and murine MerTK were evaluated using a Carterra LSA instrument (Carterra, Salt Lake City, UT). […] A HC200M sensor chip (Carterra) was activated using the single channel flow cell with a 7-minute injection of a 1:1:1 mixture of 100 mM MES pH 5.5, 100 mM sulfo-NHS, 400 mM EDC (all reconstituted in MES pH 5.5; 100 μl of each mixed in vial immediately before running assay). After switching to the multi-channel array flow cell, the antibodies were injected over the activated chip in three 96-spot arrays for 10 minutes each. The remaining unconjugated active groups on the chip were then blocked by injecting 1M Ethanolamine pH 8.5 (Carterra) for 7 minutes using the single channel flow cell. The resulting sensor chip contained three spots for each antibody, at three different densities. Two independent experiments were performed as follows, resulting in an N of between one and six determinations for each antibody. Spots that yielded less than 25 RU of analyte binding were excluded from further analysis.
After priming with running buffer (HBS-TE, Carterra) with 0.5 mg/ml BSA (Sigma), the immobilized anti-MerTK antibodies were tested for their ability to bind to several forms of recombinant MerTK extracellular domain, including human, cynomolgus, and mouse orthologs as described above. Estimates of affinity were generated by injecting each analyte over the entire antibody array using the single channel flow cell. MerTK analytes were diluted with running buffer, in a series of six, three-fold serial dilutions starting from 1 μM for human and cynomolgus MerTK, and 600 nM for mouse MerTK. Analytes were injected for 5 minutes, and dissociation was followed for 10 minutes. After each analyte injection, antibodies were regenerated with either Protein A/G Elution Buffer (Thermo) with 1M NaCl (Teknova), or with 10 mM Glycine pH 2.5. Three buffer blanks were run between each series (one species per series). Data were processed and analyzed using NextGenKIT high-throughput kinetics analysis software (Carterra).

[2] = biological target: T2, MerTK C-terminal ECD Half-and-half chimera (human); assay: SPR, construct supernatant over immobilised Ab
T2 construct: tested as culture supernatant; also called MerTK C-term half-and-half chimera; MerTK C-terminal ECD (FN1-FN2-JM) + Axl N-terminal ECD (NT-Ig1-Ig2)
T2 chain: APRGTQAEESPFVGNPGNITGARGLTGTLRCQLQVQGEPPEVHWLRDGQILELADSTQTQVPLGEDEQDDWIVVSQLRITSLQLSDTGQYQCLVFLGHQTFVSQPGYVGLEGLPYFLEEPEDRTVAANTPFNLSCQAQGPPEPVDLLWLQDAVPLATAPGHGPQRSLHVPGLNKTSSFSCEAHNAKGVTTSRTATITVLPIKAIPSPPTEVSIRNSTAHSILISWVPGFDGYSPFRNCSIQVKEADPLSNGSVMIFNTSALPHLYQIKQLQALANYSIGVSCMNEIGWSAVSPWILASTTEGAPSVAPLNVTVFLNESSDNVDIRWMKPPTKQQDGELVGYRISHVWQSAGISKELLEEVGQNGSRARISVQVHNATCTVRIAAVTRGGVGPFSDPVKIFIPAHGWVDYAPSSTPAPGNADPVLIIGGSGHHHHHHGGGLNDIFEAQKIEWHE
Outline: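 First, each purified antibody is immobilised in duplicate by amine coupling. Next, supernatants holding the chimera or deletion constructs, diluted 1:1 with BSA-containing (0.5 mg/mL) HBS-TE, are injected. Last, surfaces are stripped with 10 mM glycine pH2.0 before the next construct.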

B1: MTK-230 (antibody, human IgG1, V domains shown)
VH: EVQLQQSGPELVKPGASVRIPCKASGYTFSDYNMDWVKQSHGKSLEWIGNINPNIGGTIYSQKFKGKATLTVDKSSSTAYMELRSLTSEDTAVYYCARGDYGFASWGQGTLVTVSA
VL: DIVLTQSPASLTVSLGQRATISCRASRSVSTSGYSYMHWYQQKPGQPPKLLIYLASNLESGVPARFSGSRSGTDFTLNIHPVEEEDAATYYCQHSREYPFTFGSGTKLEIK
Ratio of KD for Mouse vs Human MerTK [1]: 3.5 ratio

B2: MTK-220 (antibody, V domains shown)
VH: EVQLVESGGGLVKPGGSLKLSCAASGFTFSDYGMHWVRQAPEKGLEWVAFISGGSGTIYYEDTVKGRFTISRDNAKNTLFLQMTSLRSEDTAMYYCTRGGNYFDYWGQGTTLTVSS
VL: NIMLTQSPSSLAVSAGEKVTMTCKSSQSVLYSSNQKNYLAWYQQKPGQSPKLLIYWASTRESGVPDRFTGSGSGTDFTLTISNVQAEDLAVYYCHQYFSSWTFGGGTKLEIK
binding result [2]: no binding

B3: MTK-202 (antibody, human IgG1, V domains shown)
VH: EVQLVESGGGLVKPGGSLKLSCAASGFTFSDFGMHWVRQVPEKGLEWVAFISGGSNTIYYTDTVKGRFTISRDNAKNTLFLQMTSLRSEDTAMYYCVRNGNSFAYWGQGTLVTVSA
VL: NIMMTQSPSSLAVSAGEKVTMNCKSSQSVLYSSNQKNYLAWYQQKPGQSPKLLIYWASTRESGVPDRFTGSGSGTDFTLTISNIQAEDLAIYYCHQYFFSWTFGGGTKLEIK
binding result [2]: no binding

B4: MTK-204 (antibody, human IgG1, V domains shown)
VH: EVQLVESGGGLVKPGGSLKLSCAASGFTFSDYGMHWVRQAPEKGLEWVAYISSGTSTIYYEDTVKGRFTISRDNAKNTLFLQMTSLRSEDTAMYYCARGGLLFDYWGQGTTLTVSS
VL: NIMMTQSPSSLAVSAGEKVTMSCKSSQSVLYSSNQKNYLAWYQQKPGQSPKLLIQWASTRESGVPDRFTGSGSETDFTLTIRSVQAEDLAVYYCHQYFSSWTFGGGTKLEIK
binding result [2]: no binding

B5: MTK-227 (antibody, human IgG1, V domains shown)
VH: EVKLVESGGGLVQPGGSLSLSCAASGFTFTDNYMTWVRQPPGKALEWLGFSRNKANGYTTEYSASVKGRFTISRDSSQSILYLQMNALRAEDSGTYYCARFPPHYYAGGYFDVWGTGTTVTVSS
VL: DIQMTQSPASLSASVGETVTITCRASENIYSYLAWYQQKQGKSPQLLVYNAKTLAEGVPSRFSGSGSGTQFSLKINSLQPADFGSYYCQHYYRTPPTFGGGTKLEIK
Ratio of KD for Mouse vs Human MerTK [1]: 0.08 ratio

B6: MTK-212 (antibody, human IgG1, V domains shown)
VH: QVQLQQSGPELVKPGASVKISCKASGYAFSSSWVNWVKQRPGKGLEWIGRIYPGDGDSNYNGNFKGKATLTADKSSNTAYLQLSSLTSEDSAVYFCARKSHFIYYTLDYWGQGTPVTVSS
VL: DIVMTQSHKFKSTSVGDRVSIACKASQDVGTSVAWYQQKPGKSPKLLIYWASSRHTGVPDRFTGSGSGTDFTLTISNVQSEDLTDYFCQQYSTYPYTFGGGTKLEIK
Ratio of KD for Mouse vs Human MerTK [1]: 0.13 ratio
binding result [2]: no binding

B7: MTK-203 (antibody, human IgG1, V domains shown)
VH: QVQLQQPGAELVKPGASVKVSCKASGYTFTNYWMHWVKQRPGQGLEWIGRIHPFDTETNDNQKFKGKATLTVDKSSSTAYMQLSSLTSEDSAVYYCVIPANGGFAYWGQGTLVTVSA
VL: ETTVTQSPASLSVATGEKVTIRCITSTDIGDDMNWYQQKPGEPPKVLISEGNSLRPGVPSRFSSSGYGTDFVFTIENTLSEDVADYFCLQSDNLPLTFGSGTKLEIK
Ratio of KD for Mouse vs Human MerTK [1]: 12.5 ratio

B8: MTK-225 (antibody, human IgG1, V domains shown)
VH: EVQLQQSGPELVKPGASVKIFCKASGYTFTAYNMDWVKQSHGKSLEWIGDINPNNGGTIYNQKFKGKATLTVDKSSSTAYMELRSLTSEDTAVYYCARRRRYGNTYYWYFDVWGTGTTVTVSS
VL: DIQMTQSPASLSVSVGETVTITCRASENIYSSLAWYQQKQGKSPQLLVYAATNLADGVPSRFSGSGSGTQFYLKINGLQSEDFGSYYCQHFWGTSYTFGGGTKLEIK
binding result [2]: no binding

B9: MTK-228 (antibody, human IgG1, V domains shown)
VH: QDQLQQSGPELVKPGASVKISCKASGYSFTSYYIHWVKQRPGQGLEWVGWIFPGNGNTKYNERFKGKATLTADTSSSTAYMQLSSLTSEDSAVYYCARLGLIYALDYWGQGTSVTVSS
VL: DAVMTQTPLSLPVSLGDQASISCRSSQSLENSNGNTYLHWYLQKPGQSPQLLIYRVSNRFSGVLDRFSGSGSGTDFTLKISRVEAEDLGVYFCLQVTHVPFTFGSGTKLEIK
Ratio of KD for Mouse vs Human MerTK [1]: 0.04 ratio

B10: MTK-218 (antibody, human IgG1, V domains shown)
VH: QVQLQQSGPELVKPGTSVKISCKASGYSFTSYYIHWVKQRPGQGLDWIGWIFPGNRNTQYNEKFKGKATLTADTSSSTAYMQLSSLTSEDSAVYYCARLGLIYALDYWGQGTSVTVSS
VL: DAVMTQTPLSLPVSLGDQASISCRSSQSLENSNGHTYLHWYLQKPGQSPQLLIYRVSNRFSGVQDRFSGSGSGTDFTLKISRVEAEDLGVYFCLQVTHVPFTFGSGTKLEIK
Ratio of KD for Mouse vs Human MerTK [1]: 0.1 ratio
binding result [2]: no binding

B11: MTK-226 (antibody, human IgG1, V domains shown)
VH: QVQLQQSGPELVKPGASVKISCKASGYSFTSYYIHWVKQRPGQGLEWIGWIFPGNGNTKYNENFRGKATLTADTSSSTAYMQLSSLTSEDSAVYYCARLGLIYALDYWGQGTSVTVSS
VL: DAVMTQTPLSLPVSLGDQASISCRSSQSLESSNGNTYLHWYLQKPGQSPQLLIYRVSNRFSGVLDRFSGSGSGTDFTLQISRVEAEDLGVYFCLQVTHVPFTFGSGTKLEIK
Ratio of KD for Mouse vs Human MerTK [1]: 0.05 ratio
binding result [2]: no binding

B12: MTK-209 (antibody, human IgG1, V domains shown)
VH: QVQLQQPGAELVKPGASVKVSCKASGYTFTNYWIHWVKQRPGQGLEWIGRIHPFDSEPNYNQKFKGKATLTVDKSSSTAYMHLTSLTSEDSAVYYCALASFAYWGQGTLVTVSA
VL: ETTVTQSPASLSMAMGEKATIRCITSTDIDDKMNWYQQKPGKPPKLLISAGNTLRPGVPSRFSSSGYGTDFVLTVENMLSEDVADYYCLQGGALPLTFGSGTKLEIK
Ratio of KD for Mouse vs Human MerTK [1]: 35.4 ratio

B13: MTK-223 (antibody, human IgG1, V domains shown)
VH: DVQLQESGPGLVKPSQSLSLTCSVTGYSITSGYYWNWIRQFPGNKLEWMGYISYDGTNNYNPSLKNRISITRDTSENQFFLKLNSVTTEDTATYFCVRGAGYWGQGTTLTVSS
VL: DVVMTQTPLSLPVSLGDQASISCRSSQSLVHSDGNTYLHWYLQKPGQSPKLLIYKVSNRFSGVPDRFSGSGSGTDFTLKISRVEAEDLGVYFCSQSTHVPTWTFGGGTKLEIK
binding result [2]: no binding
